Measurements as given in a protein production outcome set (Wang et al. 2014).

assay: label from the status in PepcDB records

| Sequence | protein production |
| --- | --- |
| MRPSAEALRDRPRCGIRPSMDYYDLGRHGRPVTTSSPEAQRWFDRGLVWTYAFHHEEAVACFEAAVAADPDCAMAHWGIAHALGPNYNKPWDAFDTEELTRTVDRTHAAVERAHALAGRATPAERALIDALRARYPQASAVEDCSVWNAPYADGMRAVYELAPDDLDVAALYADALMNLTPWQLWDLRTGLPAEGARTLAAKEVLDRALAAEGGRDHPGVVHLYIHLMEMSPTPEAALAVADRLRGLVPDAGHLLHMPSHLEVLCGDYRRVVSDNEAAIAADEKCLARSGAMNFYTLYRAHNHHFKIYGAMFLGRYEVALDAAARLEASVPEALLRVESPPMADWLEAFLAMRVHVLIRFGRWTDILALPLPDDPRLYCVTTAMLHYARGVALSATGRVAEAETERDLFRAAVDRVPGSRTLFNNTCADILAIASAMLDGELEYRRGNHTAAFAALERSVELDDNLPYDEPWGWMQPTRHAYGALLLEQGRTAEAEAVYRADLGLDDTLPRPLQHPNNVWALHGLHECLVRLGRAGEVRIVAQQLRFAAALADVPVEASCFCRLGTAPAAGGDAGCCATGQ | failed |
| MRPSAIVLAGGKEAWAERFGVGSKALVPYRGRPMVEWVLEALYAAGLSPVYVGENPGLVPAPALTLPDRGGLLENLEQALEHVEGRVLVATGDIPHLTEEAVRFVLDKAPEAALVYPIVPKEAVEARFPRTKRTYARLREGTFTGGNLLLLDKSLFRKALPLARRVVALRKRPLALARLVGWDVLLKLLLGRLSLAEVEARAQRILGVEARALVTPYPEVGVDVDREEDLVS | not failed |
| MRPTARNLAPLLAVLCAPPALLAGCGHAEPRPRAAAQDRDGLSALWSYYRYTHVQGGRVAALDEGGVTTSEGQGYAMLRAVWMDDRATLDAVWRWTRENLAVREDRLLAWRWLDGKVKDRNAATDADQDVALALVLASRRFGDPRYLEAARPLLADIWAREVIRAGGRWLPTGGNWAPAERYPTLHVAYLAPYAYQVFADVDPERPWAELVESSYQVLRFLMIEKGLALPPERIWVDPRTGELLLARPGGQPDAFGYDAVPVYWRVALDARWFGRRGEAELRARLLRFPAEAFRDEGRLRERYTTSGRPLSELDGLPHLASVQALAQLEDPELARAMRASKLDALFDRALSGEATPYYLHNWLWFGRALEAGLLRRFDEPLAFLSSLDWGAFRDRFPLLPVALAVVLAPLARRLWPARAALVALALGLSIRYLAWRAGSTLNFVEPLGPALSLALLAAEAYALSTVALLVVQVGLRHRARPPEPPLGAGEPHPSVDVMVPIYSEPLDILDKTLAACAALRYPRKTIVVCDDSHREEVARLAAEHGARYLAGPRRHAKAGNLNAALARTDGELVVVFDTDHVPTAAFLERTVPCFRDPRLGVVQTPHHFYNPDVFQRALGAPASVPNEADLFNHAIQGGRDRWGGAFFVGSGAVFRREALASVGGFHLLSITEDIHTSQKLHAGGWRTRFVDEDLAAGLSAEDLASYVVQRRRWMLGCLQIFFRDNPLLQRGLPLRHRLGYLASLWYFFFPLARLVFFATPLAYLLFHLHPLFAELPVLLAYLVPHLVAAPLAASALVPGWPRLLWGGLYEGAVAFPLARATLDLLLPRRLGFKVTPKGVRSERRRFDLRTSAFTLAAAAVGLLAIAKGAAELWAFGIEVEAYAFNLAWAGANLVSVLLALLVAWERPQRREDERIRRRVPVRLEAPGLSLEASTLDLARGGAAVALPPGAALPAEVEVTFDGPEGLRLRARVAYVEPVDGAPRAGLAFQGVGAAEARALVRIAFSADGAHAGAHDGRSRWQAAMAWHLLAGLWRAVRPLRPRRRLGARRRTLRPLRLCGAGRACRALAVDASAGGLGLVAAGARGAIPAPGTALALLAPEGIGWARVVHARRILPGLWRLGLALQAEPVPGAEPHAYLAA | failed |
| MRPVLLLCCLFLSATAQAEDCSPQTSVGSWCELPLAALHPTQQNVGLLQVEDDQAKLAGKKPKALERYLRKKEIPVVIGPGGRFYLTDRHHLSSALWRLDPKQGVPVKVIGRLPQASDFWEKMQENHWVWLHDARGAEIPPEALPDALAGLGDDPYRALAGYAEDENAFDKDRQSYFIEFHWARYFGERMHWRPISRATLPDDLKQALRLACEPAARELPGYRQDCPHLEHHHHHH | failed |
| MRQATMDFSSSSVFDQHKGDSSEEVDLTMVYQAASNGDVNSLTAVIREDPSILECCDSEGCTPLMHAVSGRQVDTVKLLLKMGANINTQDAYGRTSLCLATYLGWLEGCVSLLRNGAKHNIPDKNGRLPLHAATAEPDVRLLIVLLQQSSLSEINHQDTEGMTPLHWAAFHNRPQHTQMLLKKGADPTLVDKDFKTALHWAVQYGRSRVACQDVLGHAQGPGRASQETTISVSCQHALLGISNIYNKAGRITEASSQQLTSDFRTPLHWAAAAGKAECVQSLLDLGMDSNLRDINESTPLAYALYCGHTACVRLLSREGRAEPARPLPSQNSQPQKKEGRFSVLNQIFCKNKKEEQKAHQKEQSRARPKEEDTSEVNDIIATFDSVVDTNCQDQPGDQVDMVVFKKRTSENSKYLLPEKKSLARKGLPPIRTQSLPPITLGSNFLTASHGATSHAGLNSGLQHTAQRSQKSRSEQDLLNNRTGCQVSLDNPWKGDTRQAFSCKAWTVSSSDKLLDRMFTGQPGHQELSGPPHLPHLPNPSPGQGLQHLSPNRPKVRDFPFTRNSLAPLPDQKFLSGEPLRTNRVLPAIPSQRGHDPPAEESEWSSSPTHDEN | failed |
| MRQFKTESKKLLDLMINSIYTNKEIFLRELISNASDAVDKLNFKSLQDPSVKIDQGDLAIRVSFDKDARTITISDNGIGMTAEELERNLGTIAHSGSEEFKTENAEQQGSDVDIIGQFGVGFYSAFMVASHVKVVSRAYGEDVAHVWESDGLEGYTIEDGERAEHGTDVILTLRENEKLDADGEAETYDRFLTEWGLKSLIQQYSNYVRYPIQMMVSKSRQKPKPEDAGDDYKPEYEDYQELETVNSMTPIWKKRSSDVEQKDYDEFYKSTFHDFDDPARTISFHAEGTLEYDALLFVPGRAPFDLYSKDYEKGLSLYSSNVLIMEKCDDLLPDYYNFVRGVVDSADVSLNISRETLQQNRQLKAIAKRVEKKITADLEDMRDNDREAYEKFFENFGRGLKYGIYSSYGMKADELADLLLFWSAKEQKMITLAEYAKGMPEDQKAIYYAAGDSRERLAKMPVVKGVLDRGYDVLLLTQDVDEFTFQAMREYVAADMPKIYEDDAAREAAEKAVADGAEPEVEDRHLELKNVATGDLDLATEDEKKEAEDATKENEDLFSAMKEALGDKVEKVAVSARLTDAPACITTEGPLSLEMEKVLQKGPEGAPDGMPKSQRVLELNAKHPVFDKLVAAQKAGDADKIKQYSGLLYDQALLVEGILPEDPVAFAAAVCNLM | failed |
| MRQGEPGSPFSYLPVYQGPAVMSLRIFYHPLYSALTLPARHRFPLAKYQALFERLGSLGYPLAEAAPATPEQIKRVHDAAYVEAALAGTLDADAIRQLGFPWSPLLMERTLRSVGATLAASRHALEQGCGLQISGGYHHAHRDVGSGFCLFNDLVIAAQVCLDEGRCEQVLIVDLDVHQGDGSAALCQGRRDIITLSLHGEHNFPRYKPASHMDFPLPSGMADDAYLTTLAEALNLALRLYAPDLILYQAGVDVHKDDELGYLALSDEGIRQRDAMVFDCALRHGLPIAAVPGGGYRRDWQQLIPLHMSLFEEAKKRYG | failed |
| MRQHLSLFPFILFLLLAFSYVGCRTVRQTPKQSERYVVVLSLDGFRPDYTDRARTPALDRMAQEGLSGSLQPCFPSLTFPNHYSMATGLYPDHHGIVANEFVDSLLGIFRISDRKAVETPGFWGGEPVWNTAARQGIRTGVYFWVGSETAVNGNRPWRWKKFSSTVPFRDRADSVIAWLGLPEKERPRLLMWYIEEPDMIGHSQTPESPLTLAMVERLDSVVGYFRKRLDSLPIAAQTDFIIVSDHGMATYENEKCVNLSHYLPADSFLYMATGAFTHLYPKPSYTERAYEILRAIPHISVYRKGEVPKRLRCGTNPRLGELVVIPDIGSTVFFAINEDVRPGAAHGYDNQAPEMRALLRAVGPDFRPGSRVENLPNITIYPLICRLLGIEPAPNDADETLLNGLIRDKRP | failed |
| MRQHWRMRHLALACFLLAPGAALASDCPTAPDHSERIAHLIEDIRAAPNEMQARTISNRMWEIWADAPDEAAQAILDNGMSRRRAWDLLGALSEFDRLVAYCPDYAEGYNQRAFANFLRQDFAAALIDLDRALALSPNHVAAMSGRALTLMGLGRIDEARSVLNQALELNPWLPERGLVAPGGPLEPKGKDI | failed |
| MRQKETTATTRFSLLPGSITRFFLLLIIVLLVTMGVMVQSAVNAWLKDKSYQIVDITHAIQKRVDTWRYVTWQIYDNIAATTSPSSGEGLQETRLKQDVYYLEKPRRKTEALIFGSHDNSTLEMTQRMSTYLDTLWGAENVPWSMYYLNGQDNSLVLISTLPLKDLTSGFKESTVSDIVDSRRAEMLQQANALDERESFSNMRRLAWQNGHYFTLRTTFNQPGHLATVVAFDLPINDLIPPGMPLDSFRLEPDATATGNNENEKEGTDSVSIHFNSTKIEISSALNSTDMRLVWQVPYGTLLLDTLQNILLPLLLNIGLLALALFGYTTFRHFSSRSTESVPSTAVNNELRILRAINEEIVSLLPLGLLVHDQESNRTVISNKIADHLLPHLNLQNITTMAEQHQGIIQATINNELYEIRMFRSQVAPRTQIFIIRDQDREVLVNKKLKQAQRLYEKNQQGRMTFMKNIGDALKEPAQSLAESAAKLNAPEGKQLANQADVLVRLVDEIQLANMLADDSWKSETELFSVQDLIDEVVPSVLPAIKRKGLQLLINNHLKAHDMRRGDRDALRRILLLLMQYAVTSTQLGKITLEVDQDESSEDRLTFRILDTGEGVSIHEMDNLHFPFINQTQNDRYGKADPLAFWLSDQLARKLGGHLNIKTRDGLGTRYSVHIKMLAADPEVEEEEERLLDDVCVMVDVTSAEIRNIVTRQLENWGATCITPDERLISQDYDIFLTDNPSNLTASGLLLSDDESGVREIGPGQLCVNFNMSNAMQEAVLQLIEVQLAQEEVTESPLGGDENAQLHASGYYALFVDTVPDDVKRLYTEAATSDFAALAQTAHRLKGVFAMLNLVPGKQLCETLEHLIREKDVPGIEKYISDIDSYVKSLL | failed |
| MRQTKLTKAARGRECQVRIPGVCNGNPETTVLAHYRLAGTCGVGKKPHDMQGAWCCSACHDACDGRSRAVGRETARQYHAEGVMRTQALLLNEGVLVE | not failed |
| MRQVFSTDQEYKADKSPENLFPLTEVTRKMEYEERFDQAVRVTGVGLFVNLGLTIFKLLAGILGNSTAMVADAVHSLSDFLTDVVVIFGFKIAKKPVDESHNYGHGKIETLSASLVGLMLLLVAGQILYYGVQKTLMFIEAGTLEQPAIIALYAALASVISKEIMYQYTILKARKINSMALTANAWHHRSDAFSSFCTMIGIGAAVFLGGKWVVLDPLMAVFLSFIILKVSLKIFHSSINELVEASLDEKTESEIRQIIQKTEGVKALSNLKTRRIGNNIAVDIRIKVDNALDIGEANRISIHVEHNLKKAFGPYTYVLVKAEPYEREPWGNPEDEKAREHPVNPEKNKVCLRNHSN | failed |
| MRRCPLCHSTQTHLLLQDKKRCFYICQTCWLTFADANSHLPPAAEKQRYGRSRIASKQRHLSQFILPLLTQIQQQQNGSLTGLNFGRVLDQTSLETIESAGHTFKQYDPFFAPDHETLKQEYDFICCYRVFEHFQYPIKEWSLLTRLLKPGGWLAISTPLLIDLEGFAKWHYKNNLTHVSFYQRQTFEYLASNSDFELLFAAKDLVLMQKTSLEHHHHHH | not failed |
| MRRFLVLLWLLSLALAAPRLVVEPEDGVKPLLDLIASAREEILVKMYLWTPSRMDVVEALGEAARRGVRVRVLLEREPSGGRVDLEVFQALKARGVEVRLTTPFRFVFVHEKSLVVDRKRAWVGTMNLTGSSFAANREYALILDDPAQVAEIAKVFEADWEGERLDLSQALLVWAPSRVLGGVKEGNARETLLALIRGAQRELFLEHQAMADPEVEAALKEALGRGVRVRLLGSPKEPGDTYFLAGALRLKEAGALVRFLPDPYVHAKVLVRDGEEALLGSLNLSANSIQANRELAVRFTAREAPEAFRRLLFVMEGDWEKALPENPFALPPVEGVIPWQEAPRYFGRVATVEGVIQAVEDRGTVAFLKFGPGESDLRLVVFPRSYGLFAQPFPQSYLGKKVRARGRIVLYAGYYEIVLEGPENLEVLDGGP | failed |
